In patent US20210401986A1 one finds percent cell death of BxPC3 cells (CellTox Green) after sequential labeling and 690 nm light data, which are given here for 1 substance.

In the assay the target is cetuximab (unconjugated anti-EGFR antibody). In words: cell-based or functional assay.

Substance “AffiniPure Donkey Anti-Human IgG, Fcγ Fragment Specific (DxHu) antibody conjugated with IRDye 700DX” showed a percent cell death of BxPC3 cells (CellTox Green) after sequential labeling and 690 nm light at 16 J/cm^2 of 90%.
